Assay [1] has as its target T1, Human ICAM1 ECD-Avi (human, UniProt P05362 28-480).
T1 construct: eluted as a monomer; also called hICAM1; recombinant ICAM1
As to the kind of experiment: ELISA, plate coated with recombinant ICAM1. (In general: An ELISA detects its analyte on a solid surface through an enzyme-linked reagent.)
Protocol: (§1) A 96-well plate was coated overnight at 4° C. with 1 µg/ml recombinant CD38 or ICAM1. After washing 3 times, the plate was blocked with 300 µl 1% BSA in PBST at 37° C. for 1 hour. Serially diluted antibodies were added and incubated at 37° C. for 1 hour. The plate was then washed 4 times with PBST and incubated with 1:5000 diluted 2nd antibody (Sigma, Cat# A0293) at 37° C. for 1 hour.

For assay [2], the target named is T2, ICAM1 on the surface of tumor cells (human, UniProt P05362 28-532).
T2 construct: whole, on cells; also called ICAM1 on DU145 cells; ICAM1 on the surface of Daudi cells
As to the kind of experiment: flow cytometry on DU145 cells.
Protocol: (§2) Surface expression of CD38 and ICAM1 on the transformed cell lines was quantified by flow cytometry. Harvested cells were centrifuged at 2000 rpm for 5 min, resuspended in 10 - 15 ml ice-cold culture medium, and then counted. Then, 3×10⁶ cells were resuspended per ml of blocking buffer (PBS plus 2% FBS). 100 µl of the cell suspension was dispensed into each well of a 96-well plate and incubated at room temperature for 10-20 min. […] While incubating, purified antibodies were diluted to the desired dilution with blocking buffer. After a 10-20 minutes incubation, cells were centrifuged for 5 minutes at 2000 rpm in a refrigerated centrifuge. Blocking buffer was aspirated, and the cells were resuspended in 100 µl/well diluted antibodies and incubated for 1 hour at 4° C. The cells were then washed 3 times with PBS plus 2% FBS. […] The cells were then washed 3 times with 200 µl PBS by centrifuging at 2000 rpm for 5 min. After the last wash, the cells were resuspended in 300 µl cold PBS and analyzed on a FACSVerse™ (BD Biosciences) flow cytometer.
(§3) Binding of the chimeric anti-CD38 and anti-ICAM1 antibodies to proteins on the surface of tumor cells was determined by flow cytometry, as described above.

The target of assay [3] is T1, Human ICAM1 ECD-Avi. As to the kind of experiment: SPR (Biacore 8K), antibody captured, monomeric ICAM1 ECD injected. On the technique in general: In SPR one partner is held on a chip, and binding of the other changes the refractive index at the surface.
Protocol: (§4) Furthermore, binding kinetics measurements of the anti-CD38 and anti-ICAM1 antibodies were not affected by antibody valency in the SPR assays because antibodies were immobilized and challenged with monomeric antigens. SPR was performed on a Biacore 8K instrument (GE Healthcare). Antibodies were captured on Biacore Series S CM5 sensor chips coated with a monoclonal mouse anti-human IgG (Fc) antibody (GE Healthcare human antibody capture kit). Serial 3-fold dilutions of antigen (CD38 ECD or ICAM1 ECD) were injected at a flow rate of 30 µl/min. Each sample was analyzed with 1 min association and 10 min dissociation at room temperature (25° C.). After each injection, the chip was regenerated using 3 M MgCl₂. A 1:1 Langmuir model of simultaneous fitting of kₒₙ and koff was used for kinetics analysis.
Assay [4] deals with T2, ICAM1 on the surface of tumor cells. As to the kind of experiment: flow cytometry on Daudi cells; lower end of the range; Daudi cells.
Protocol: as §2
Assay [5] addresses T3, Avi-human CD38 ECD (human, UniProt P28907 43-300).
T3 construct: eluted as a monomer; also called hCD38; huCD38
Put plainly: SPR.

The target of assay [6] is T1, Human ICAM1 ECD-Avi. Put plainly: SPR.
Assay [7] addresses T4, CD38 on the surface of tumor cells (human, UniProt P28907 1-300). Put plainly: cell-based or functional assay.
Assay [8] has as its target T4, CD38 on the surface of tumor cells. As to the kind of experiment: cell-based or functional assay. The source holds these as a separate data set.
The target of assay [9] is T3, Avi-human CD38 ECD. Put plainly: ELISA on human CD38 ECD; class A = EC50 0.02 nM - 0.1 nM (table legend).
Assay [10] concerns the target T3, Avi-human CD38 ECD. Put plainly: ELISA on human CD38 ECD; class C = EC50 >0.5 nM (table legend).
Assay [11] concerns the target T3, Avi-human CD38 ECD. Put plainly: ELISA on human CD38 ECD; class B = EC50 0.1 nM - 0.5 nM (table legend).
For assay [12], the target named is T3, Avi-human CD38 ECD. As to the kind of experiment: ELISA, plate coated with recombinant CD38.
Protocol: as §1
The target in assay [13] is T4, CD38 on the surface of tumor cells. Put plainly: flow cytometry on Daudi cells. (Flow cytometry measures light scatter and fluorescence of single cells or particles in a stream.)
Protocol: as §2, §3
The target in assay [14] is T3, Avi-human CD38 ECD. As to the kind of experiment: SPR (Biacore 8K), antibody captured, monomeric CD38 ECD injected.
Protocol: as §4

Substitutions are numbered along the chain they refer to. A value given as a limit tells only on which side of the number the result lay.

B1: anti-ICAM1 chimeric monoclonal antibody 11F2 (antibody, human IgG1, kappa, V domains shown)
VH: QSVEESGGGLVKPGGTLTLTCTVSGFSLSSHAMGWVRQAPGKGLEYIGIIGSSDRTYYASWAKGRFTISKTSTTVDLKITSPTTEDTATYFCVRDPYDSYDDGYRLWGPGTLVTVSS
VL: AYDMTQTPASVEVAVGGTVTIKCQASQSIYRYLSWYQKKPGQRPKFLIYDASKLASGVPSRFEGSGSGTEFTLTISGAQSDDAATYYCQQAYSSGSIDNAFGGGTEVVVKR
notes: Rabbit variable domains on human IgG1 / human kappa constant regions; also called chimeric 11F2
With B1, the EC50 (usually the concentration that produces a half-maximal response) was ~50 pM with Human ICAM1 ECD-Avi [1] and 1000 to 1500 pM in assay [2]. The Kd – broadly, the concentration at which binding is half-saturated – in the assay with Human ICAM1 ECD-Avi [3] lay in the range of 100 to 500 pM.

B2: anti-ICAM1 chimeric monoclonal antibody 8B12 (antibody, human IgG1, kappa, V domains shown)
VH: B1 VH with S30T, Y100F
VL: B1 VL with R31S, K38Q, L54V, E63K, G77A, A78V, G95S, S96N, I97V, V108M
notes: Rabbit variable domains on human IgG1 / human kappa constant regions; also called chimeric 8B12
As to B2, the EC50 was 40 to 80 pM in assay [4], ~50 pM with Human ICAM1 ECD-Avi [1] and 1000 to 1500 pM in assay [2]. The Kd with Human ICAM1 ECD-Avi [3] fell in the range of 100 to 500 pM.

B3: αCD38(scFv) x αICAM1 (bispecific antibody, human IgG1, kappa)
heavy: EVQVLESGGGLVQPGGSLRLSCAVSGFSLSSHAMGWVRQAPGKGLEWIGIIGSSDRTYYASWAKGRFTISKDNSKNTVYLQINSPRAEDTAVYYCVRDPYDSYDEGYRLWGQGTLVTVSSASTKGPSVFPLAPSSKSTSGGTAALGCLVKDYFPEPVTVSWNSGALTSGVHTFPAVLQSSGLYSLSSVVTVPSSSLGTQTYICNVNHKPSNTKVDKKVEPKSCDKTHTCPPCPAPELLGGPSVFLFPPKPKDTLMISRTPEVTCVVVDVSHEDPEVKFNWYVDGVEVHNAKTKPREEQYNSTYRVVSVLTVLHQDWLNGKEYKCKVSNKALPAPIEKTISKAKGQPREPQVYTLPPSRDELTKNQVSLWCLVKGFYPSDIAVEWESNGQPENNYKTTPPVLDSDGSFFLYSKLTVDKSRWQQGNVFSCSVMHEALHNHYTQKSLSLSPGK
light: DIQMTQSPSTLSASVGDRVTITCQASQSIYRYLSWYQQKPGKAPKFLIYDASKLASGVPSRFSGSGSGTEFTLTISSVQPDDFATYYCQQAYSSGSIDNAFGGGTKVEIKRTVAAPSVFIFPPSDEQLKSGTASVVCLLNNFYPREAKVQWKVDNALQSGNSQESVTEQDSKDSTYSLSSTLTLSKADYEKHKVYACEVTHQGLSSPVTKSFNRGEC
scFv: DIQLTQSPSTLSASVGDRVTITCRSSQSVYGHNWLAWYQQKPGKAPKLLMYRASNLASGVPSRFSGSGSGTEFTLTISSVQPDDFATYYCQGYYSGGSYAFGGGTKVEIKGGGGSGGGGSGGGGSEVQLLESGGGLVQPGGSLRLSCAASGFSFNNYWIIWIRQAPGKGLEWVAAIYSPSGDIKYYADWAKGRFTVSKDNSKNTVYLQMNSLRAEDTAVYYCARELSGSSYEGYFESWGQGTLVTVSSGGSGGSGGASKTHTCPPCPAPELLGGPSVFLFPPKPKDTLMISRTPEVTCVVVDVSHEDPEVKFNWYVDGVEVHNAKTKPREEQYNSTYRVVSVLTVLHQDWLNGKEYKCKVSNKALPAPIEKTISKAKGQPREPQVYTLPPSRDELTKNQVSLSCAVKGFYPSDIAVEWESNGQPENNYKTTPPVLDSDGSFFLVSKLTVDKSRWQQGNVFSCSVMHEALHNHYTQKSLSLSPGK
notes: h11F2-6 Fab arm on Fc-knob, h18E4-19 scFv on Fc-hole; IgG1 Fc; also called three chain bispecific antibody; scFv format bispecific antibody
Turning to B3, the equilibrium dissociation constant (Kd) was 2000 to 5000 pM with Avi-human CD38 ECD [5] and 100 to 150 pM in the assay with Human ICAM1 ECD-Avi [6].

B4: αCD38(TCR) x αICAM1 (bispecific antibody, human IgG1, kappa)
heavy 1: EVQLLESGGGLVQPGGSLRLSCAASGFSFNNYWIIWIRQAPGKGLEWVAAIYSPSGDIKYYADWAKGRFTVSKDNSKNTVYLQMNSLRAEDTAVYYCARELSGSSYEGYFESWGQGTLVTVLEDLKNVFPPEVAVFEPSEAEISHTQKATLVCLATGFYPDHVELSWWVNGKEVHSGVCTDPQPLKEQPALQDSRYALSSRLRVSATFWQNPRNHFRCQVQFYGLSENDEWTQDRAKPVTQIVSAEAWGRASDKTHTCPPCPAPELLGGPSVFLFPPKPKDTLMISRTPEVTCVVVDVSHEDPEVKFNWYVDGVEVHNAKTKPREEQYNSTYRVVSVLTVLHQDWLNGKEYKCKVSNKALPAPIEKTISKAKGQPREPQVCTLPPSREEMTKNQVSLSCAVKGFYPSDIAVEWESNGQPENNYKTTPPVLDSDGSFFLVSKLTVDKSRWQQGNVFSCSVMHEALHNHYTQKSLSLSPG
light 1: DIQLTQSPSTLSASVGDRVTITCRSSQSVYGHNWLAWYQQKPGKAPKLLMYRASNLASGVPSRFSGSGSGTEFTLTISSVQPDDFATYYCQGYYSGGSYAFGGGTKVEIKPDIQNPDPAVYQLRDSKSSDKSVCLFTDFDSQTQVSQSKDSDVYITDKCVLDMRSMDFKSNSAVAWSQKSDFACANAFQNSIIPEDTFFPSPESS
heavy 2: not shown
light 2: B3 light
notes: also called TCR format bispecific antibody; TCR-chimera bispecific antibody
Take B4: the values for the dissociation constant Kd with Avi-human CD38 ECD [5] and with Human ICAM1 ECD-Avi [6] were 2000 to 5000 pM and 100 to 150 pM, respectively.

B5: h18E4-19 (antibody, V domains shown)
VH: EVQLLESGGGLVQPGGSLRLSCAASGFSFNNYWIIWIRQAPGKGLEWVAAIYSPSGDIKYYADWAKGRFTVSKDNSKNTVYLQMNSLRAEDTAVYYCARELSGSSYEGYFESWGQGTLVTV
VL: DIQLTQSPSTLSASVGDRVTITCRSSQSVYGHNWLAWYQQKPGKAPKLLMYRASNLASGVPSRFSGSGSGTEFTLTISSVQPDDFATYYCQGYYSGGSYAFGGGTKVEIK
notes: also called hu18E4-19; humanized h18E4-19 antibody
On to B5, for which, in [7], the “ADCC EC50 on Daudi cells; antibody made in CHO” value was 12.7 pM, the “ADCC EC50 on Daudi cells; antibody made in CHO FUT8 -/- (afucosylated)” value was found to be 0.4 pM, the “ADCC EC50 on HuNS1 cells; antibody made in CHO” value amounted to 80 pM and the “ADCC EC50 on HuNS1 cells; antibody made in CHO FUT8 -/- (afucosylated)” value stood at 80 pM. In addition, in assay [7], the “ADCC EC50 on Raji cells; antibody made in CHO” value was determined as 14 pM and the “ADCC EC50 on Raji cells; antibody made in CHO FUT8 -/- (afucosylated)” value stood at 8 pM. Further, the “ADCC on Daudi cells, EC50” value in assay [8] lay within 0.05 to 0.1 pM. In addition, in the assay with Avi-human CD38 ECD [9], the half-maximal effective concentration (EC50) was in the range of 20 to 100 pM.

B6: h18E4-13 (antibody, V domains shown)
VH: EVQLLESGGGLVQPGGSLRLSCAASGFSFNNYWICWIRQAPGKGLEWVACIYSPSGDIKYYADWAKGRFTVSKDNSKNTVYLQMNSLRAEDTAVYYCARELSGSSYEGYFESWGQGTLVTVSS
VL: B5 VL
Regarding B6, the binding result with Avi-human CD38 ECD [5] is listed as “binds”.

B7: h18E4-19 LC Y91A (antibody, V domains shown)
VH: B5 VH
VL: B5 VL with Y93A
notes: Alanine scan variant of h18E4-19; Kabat numbers, not linear positions of the entry
As to B7, the EC50 with Avi-human CD38 ECD [10] was > 500 pM.

B8: h18E4-19 HC G100cA (antibody, name in Kabat numbering, V domains shown)
VH: B5 VH with G108A
VL: B5 VL
notes: as for B7
In the assay with Avi-human CD38 ECD [11], B8 displayed an EC50 of 100 to 500 pM.

B9: h18E4-19 HC Y100dA (antibody, name in Kabat numbering, V domains shown)
VH: B5 VH with Y109A
VL: B5 VL
notes: as for B7
Turning to B9, the concentration giving a half-maximal response (EC50) with Avi-human CD38 ECD [10] is > 500 pM.

B10: h18E4-19 LC G90A (antibody, V domains shown)
VH: B5 VH
VL: B5 VL with G92A
notes: as for B7
On to B10, for which, in the assay with Avi-human CD38 ECD [11], the EC50 was 100 to 500 pM.

B11: h18E4-19 LC S93A (antibody, V domains shown)
VH: B5 VH
VL: B5 VL with S95A
notes: as for B7
In the case of B11, in the assay with Avi-human CD38 ECD [11], the concentration giving a half-maximal response (EC50) lay within 100 to 500 pM.

B12: h18E4-19 LC G94A (antibody, V domains shown)
VH: B5 VH
VL: B5 VL with G96A
notes: as for B7
B12: in the assay with Avi-human CD38 ECD [10], the EC50 is > 500 pM.

B13: h18E4-19 LC Y96A (antibody, V domains shown)
VH: B5 VH
VL: B5 VL with Y99A
notes: as for B7
Molecule B13 showed an EC50 in the assay with Avi-human CD38 ECD [11] of 100 to 500 pM.

B14: h18E4-19 HC E100bA (antibody, name in Kabat numbering, V domains shown)
VH: B5 VH with E107A
VL: B5 VL
notes: as for B7
For B14, the concentration for a half-maximal effect (EC50) with Avi-human CD38 ECD [10] was > 500 pM.

B15: h18E4-19 HC E95A (antibody, name in Kabat numbering, V domains shown)
VH: B5 VH with E100A
VL: B5 VL
notes: as for B7
As for B15, the EC50 with Avi-human CD38 ECD [10] was > 500 pM.

B16: anti-CD38 chimeric monoclonal antibody 18E4 (antibody, human IgG1, kappa, V domains shown)
VH: QSLEESGGDLVKPGASLTLTCTASGFSFNNYWICWIRQAPGKGLEWVACIYSPSGDIKYYANWAKGRFTVSKTSSTTVTLQMTSLTGADTATYFCARELSGSSYEGYFESWGPGTLVTVSS
VL: AQVLTQTPSSVSAAVGGTVTINCQCSQSVYGHNWLAWYQHKPGQPPKLLMYRASNLASGVPSRFKGSGSGSQFTLTIGEVQSDDAATYYCQGYYNGGSYAFGGGTEVVVRR
notes: Rabbit variable domains on human IgG1 / human kappa constant regions; also called chimeric 18E4; Chimeric antibody 18E4
On to B16, for which the values for the concentration for a half-maximal effect (EC50) (in the assay with Avi-human CD38 ECD [12]; in [13]) were ~50 pM and 300 to 1000 pM, respectively. Also, the “CDC on Daudi cells, EC50” value in [8] was 1000 to 2000 pM. Further, the dissociation constant Kd with Avi-human CD38 ECD [14] was in the range of 100 to 500 pM.
